Experimental data reported in PMC3303851, “Structural Basis of Ets1 Cooperative Binding to Widely Separated Sites on Promoter DNA” (PLoS ONE, 2012).

Biological target: the molecule itself
Assay: crystal structure; Ets1 280-441 mixed 1:1.05 with TCRα promoter dsDNA; (Ets1)2•2DNA crystals grown at 295 K, space group P2_(1), refined at 3.1 Å; asymmetric unit holds an Ets1 homodimer and two pieces of dsDNA

B1: Ets1 (residues 280–441) (domain or fragment, UniProt P14921 280-441, looked up)
chain: VPSYDSFDSEDYPAALPNHKPKGTFKDYVRDRADLNKDKPVIPAAALAGYTGSGPIQLWQFLLELLTDKSCQSFISWTGDGWEFKLSDPDEVARRWGKRKNKPKMNYEKLSRGLRYYYDKNIIHKTAGKRYVYRFVCDLQSLLGYTPEELHAMLDVKPDADE
notes: also called Ets1 dimer; source: cloned, expressed and purified according to reported protocols [36]
  stoichiometry N: 2
